The values that follow come from patent publication US20200181617, “CHEMICALLY MODIFIED RNA APTAMERS AND USES THEREOF” (ALBERT EINSTEIN COLLEGE OF MEDICINE, published 2020).

This data set deals with T1, LRIG1 (UniProt Q96JA1 Q96JA1:35-794).
T1 sequence: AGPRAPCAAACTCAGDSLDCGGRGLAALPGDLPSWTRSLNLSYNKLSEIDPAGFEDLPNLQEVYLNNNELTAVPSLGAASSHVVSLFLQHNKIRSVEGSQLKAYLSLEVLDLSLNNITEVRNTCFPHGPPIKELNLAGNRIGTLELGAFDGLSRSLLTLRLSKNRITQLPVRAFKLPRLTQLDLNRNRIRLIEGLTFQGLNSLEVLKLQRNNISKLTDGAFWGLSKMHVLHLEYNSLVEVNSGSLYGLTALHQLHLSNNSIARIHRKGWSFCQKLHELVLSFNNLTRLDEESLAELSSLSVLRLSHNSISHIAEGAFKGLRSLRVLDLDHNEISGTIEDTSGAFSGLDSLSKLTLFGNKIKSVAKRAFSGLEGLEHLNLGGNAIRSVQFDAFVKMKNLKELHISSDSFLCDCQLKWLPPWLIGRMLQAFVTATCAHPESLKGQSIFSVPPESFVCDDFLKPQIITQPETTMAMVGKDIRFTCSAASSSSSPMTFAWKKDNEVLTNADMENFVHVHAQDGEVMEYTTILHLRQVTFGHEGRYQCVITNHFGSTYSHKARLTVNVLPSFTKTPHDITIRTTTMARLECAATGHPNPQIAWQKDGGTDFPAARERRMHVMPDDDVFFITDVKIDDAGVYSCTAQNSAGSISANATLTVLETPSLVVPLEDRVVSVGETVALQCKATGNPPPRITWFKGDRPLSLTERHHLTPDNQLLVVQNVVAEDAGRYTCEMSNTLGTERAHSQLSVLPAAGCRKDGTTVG
The experiment in a line: flow; apparent; protein on Dynal His beads; no signal on non-protein beads. The note with it: tags: His-tagged, immobilized on magnetic His-capture beads (Dynal His beads). The procedure:
Using a N40 library containing ˜10″ unique sequences, transcribed using a mixture of Phe-dUTP, 2′OMe ATP, 2′OMe CTP and 2′F GTP, SELEX was initiated against the protein LRIG1. In short, the His-tagged protein was immobilized on 1 μm, magnetic His-capture beads and incubated with the library for 30 minutes at 37° C. after which the beads were washed 3 times with buffer, and then any bound library molecules eluted by the addition of wash buffer containing the denaturant guanidine hydrochloride (4M). Following elution the library molecules were recovered by ethanol precipitation and reverse transcribed into DNA using SSIV under optimized conditions (2M betaine). The resulting ssDNA was then amplified by PCR and the resulting dsDNA then transcribed back in to modified RNA by transcription using the LAL-polymerase and a mixture of Phe-dUTP, 2′OMe ATP, 2′OMe CTP and 2′F GTP under the present optimized conditions. The process was repeated for 8 rounds of selection. A fluorescently labeled library was used to monitor the selection by flow cytometry. […] Importantly, when similar experiments were performed using non-protein target loaded beads, no signal over background was observed. […] Subsequent experiments were carried out to clone and sequence the round 6, 7 and 8 population and test individual molecules identified from the screen. […]

B1: Lrig1-Rd8-11 (clone 11) (XNA)
DNA: GGGAAGGAGAGACGACGCGACACCCGCTTCACCGCTGTGTAACTGCGACGACGGACGTCAGATCAGCAGACAAGACCGGACAAGAAGC
modifications: 2'-F G; 2'-OMe A; 2'-OMe C; all T positions are 5-modified dU (Phe-dU)
B1: the Kd was around 35 nM.

B2: Lrig1-Rd8-08 (clone 8) (XNA)
DNA: GGGAAGGAGAGACGACGCGACACCCCCTTGAGTCACAGGTGTGTGAGCGCCGACGGCTTGGTACAGCAGACAAGACCGGACAAGAAGC
modifications: 2'-F G; 2'-OMe A; 2'-OMe C; all T positions are 5-modified dU (Phe-dU)
In the case of B2, the Kd was around 25 nM.
